In PMC11412978:

Target: USP22 (ubiquitin-specific protease 22) (UniProt Q9UPT9)
Assay: co-IP of myc-MYH9 and Flag-USP22
Conditions: reference: wild-type MYH9; sites S1943

binding against the reference: lost
Substance: MYH9 (non-muscle myosin heavy chain 9) (from UniProt P35579) MYH9-S1943A
